Data published in article PMC3734125, “Epitope Mapping and In Silico Characterization of Interactions between Der p 7 Allergen and MoAb WH9” (PLoS ONE, 2013).

Experiments:
Experiment in all cases: far-Western, overlay or dot blot; SDS-PAGE immunoblot: purified recombinant Der p 7 proteins on PVDF membrane, incubated with hybridoma culture supernatant (1:10 in TTBS, 1% skim milk) 1 h at room temperature; band intensities quantified; percent reduction against the wild type
Conditions in all cases: one partner purified
Der p 7 L158A mutant = target: T1, Der p 7 L158A mutant (Dermatophagoides pteronyssinus, UniProt P49273, L158A)
T1 construct: Mite allergen Der p 7, Dermatophagoides pteronyssinus, GenBank U37044; source: E. coli JM109, purified (Ni-NTA)

[1] = target: T2, Der p 7 (wild type, recombinant) (Dermatophagoides pteronyssinus, UniProt P49273)
T2 construct: Mite allergen Der p 7, Dermatophagoides pteronyssinus, GenBank U37044; Expression and purification are described for the mutants (pQE80, E. coli JM109, Ni-NTA); also called wild-type Der p 7; source: purified recombinant protein

Der p 7 D159A mutant = target: T3, Der p 7 D159A mutant (Dermatophagoides pteronyssinus, UniProt P49273, D159A)
T3 construct: Mite allergen Der p 7, Dermatophagoides pteronyssinus, GenBank U37044; source: E. coli JM109, purified (Ni-NTA)

Der p 7 P160A mutant = target: T4, Der p 7 P160A mutant (Dermatophagoides pteronyssinus, UniProt P49273, P160A)
T4 construct: Mite allergen Der p 7, Dermatophagoides pteronyssinus, GenBank U37044; also called P106A (as printed once); source: E. coli JM109, purified (Ni-NTA)

Der p 7 S156A mutant = target: T5, Der p 7 S156A mutant (Dermatophagoides pteronyssinus, UniProt P49273, S156A)
T5 construct: Mite allergen Der p 7, Dermatophagoides pteronyssinus, GenBank U37044; source: E. coli JM109, purified (Ni-NTA)
T5 sequence (P49273 18-215 S156A): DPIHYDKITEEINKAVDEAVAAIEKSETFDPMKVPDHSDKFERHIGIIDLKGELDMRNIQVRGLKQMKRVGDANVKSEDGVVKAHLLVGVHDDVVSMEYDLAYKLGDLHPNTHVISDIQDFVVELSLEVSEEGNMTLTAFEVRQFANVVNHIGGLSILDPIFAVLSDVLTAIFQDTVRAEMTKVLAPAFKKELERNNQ

T1 sequence (P49273 18-215 L175A): as the sequence (P49273 18-215 S156A) above, with A139S, L158A counted along it
T2 sequence (P49273 18-215): as the sequence (P49273 18-215 S156A) above, with A139S counted along it
T3 sequence (P49273 18-215 D176A): as the sequence (P49273 18-215 S156A) above, with A139S, D159A counted along it
T4 sequence (P49273 18-215 P177A): as the sequence (P49273 18-215 S156A) above, with A139S, P160A counted along it

mean percentage of reduction in immunoreactivity against the wild type (Der p 7 L158A mutant): 87%
binding result [1]: binds
mean percentage of reduction in immunoreactivity against the wild type (Der p 7 D159A mutant): 81%
mean percentage of reduction in immunoreactivity against the wild type (Der p 7 P160A mutant): 87%
mean percentage of reduction in immunoreactivity against the wild type (Der p 7 S156A mutant): 18%
B1: MoAb WH9 (antibody, V domains shown)
VH: QVQLEQSGAELAKVGASVKMSCKASGYTFTNYWMHWVKQRPGQGLEWIGYINPSIGYIDYNQKFKDKATLTVDKSSSTAYMQLSSLTSEDSAVYYCAGVEYGSSLGDYFDDWGQGTTL
VL: not shown
notes: variable domain of the heavy chain of WH9; the first nine amino acids derive from the PCR primer; variable domain of the light chain of WH9; the first eight amino acids derive from the PCR primer; also called mouse monoclonal antibody WH9; source: hybridoma WH9, culture supernatant
